Source: patent US9533026B2, “Polypeptide compounds for inhibiting angiogenesis and tumor growth” (VasGene Therapeutics, Inc., priority 2004, dated 2017)
Where two headings read alike, the source gives them in different places.

B1: soluble EphB4: soluble EphB4 extracellular domain protein; exact construct not stated at the results (protein)
chain: LEETLLNTKLETADLKWVTFPQVDGQWEELSGLDEEQHSVRTYEVCDVQRAPGQAHWLRTGWVPRRGAVHVYATLRFTMLECLSLPRAGRSCKETFTVFYYESDADTATALTPAWMENPYIKVDTVAAEHLTRKRPGAEATGKVNVKTLRLGPLSKAGFYLAFQDQGACMALLSLHLFYKKCAQLTVNLTRFPETVPRELVVPVAGSCVVDAVPAPGPSPSLYCREDGQWAEQPVTGCSCAPGFEAAEGNTKCRACAQGTFKPLSGEGSCQPCPANSHSNTIGSAVCQCRVGYFRARTDPRGAPCTTPPSAPRSVVSRLNGSSLHLEWSAPLESGGREDLTYALRCRECRPGGSCAPCGGDLTFDPGPRDLVEPWVVVRGLRPDFTYTFEVTALNGVSSLATGPVPFEPVNVTTDREVPPAVSDIRVTRSSPSSLSLAWAVPRAPSGAVLDYEVKYHEKGAEGPSSVRFLKTSENRAELRGLKRGASYLVQVRARSEAGYGPFGQEHHSQTQLDESEGWREQLA
B2: B4ECv3: soluble extracellular domain derivative of human EphB4, SEQ ID NO:1 (protein)
chain: MELRVLLCWASLAAALEETLLNTKLETADLKWVTFPQVDGQWEELSGLDEEQHSVRTYEVCEVQRAPGQAHWLRTGWVPRRGAVHVYATLRFTMLECLSLPRAGRSCKETFTVFYYESDADTATALTPAWMENPYIKVDTVAAEHLTRKRPGAEATGKVNVKTLRLGPLSKAGFYLAFQDQGACMALLSLHLFYKKCAQLTVNLTRFPETVPRELVVPVAGSCVVDAVPAPGPSPSLYCREDGQWAEQPVTGCSCAPGFEAAEGNTKCRACAQGTFKPLSGEGSCQPCPANSHSNTIGSAVCQCRVGYFRARTDPRGAPCTTPPSAPRSVVSRLNGSSLHLEWSAPLESGGREDLTYALRCRECRPGGSCAPCGGDLTFDPGPRDLVEPWVVVRGLRPDFTYTFEVTALNGVSSLATGPVPFEPVNVTTDREVPPAVSDIRVTRSSPSSLSLAWAVPRAPSGAWLDYEVKYHEKGAEGPSSVRFLKTSENRAELRGLKRGASYLVQVRARSEAGYGPFGQEHHSQTQLDESEGWREQGSKRAILQIEGKPIPNPLLGLDSTRTGHHHHHH
modifications: Recombinant B4ECv3 protein

Columns and labels:
[1] = tested on: HNSCC-15 cells; experiment: Cell cycle FACS of HNSCC cells with soluble EphB4ECD; type: cell-based, human
[2] = tested on: vascularization of Matrigel plugs; experiment: Murine Matrigel plug angiogenesis assay; type: in vivo, mouse; conditions: for vascularization of Matrigel plugs / in vivo angiogenesis: plugs with bFGF and VEGF, s.c., mice; for infiltration / invasion of cells into Matrigel plugs: plugs with growth factors
Protocol: (§1) Cord formation assay of HUVEC in Matrigel™ (upper row). Cells in exponential growth phase were treated overnight with the indicated concentrations of EphB4 extracellular domain (ECD) prior to plating on Matrigel™. Cells were trypsinized and plated (1×10^5 cells/well) in a 24-well plate containing 0.5 ml Matrigel™. Shown are representative 20× phase contrast fields of cord formation after 8 hr plating on Matrigel™ in the continued presence of the test compounds as shown. Original magnification 200×. KS-SLK cells treated in a similar manner (middle row) in a cord formation assay on Matrigel™. […] After 7 days the plugs were removed, sectioned and stained with H&E to visualize cells migrating into the matrix.
Matrigel supplemented with bFGF and VEGF with and without soluble EphB4 was injected s.c. into Balb/C nu/nu mice, forming semi-solid plugs, for six days. Plugs without growth factors had virtually no vascularization or vessel structures after 6 days (FIG. 21). In contrast, plugs supplemented with bFGF and VEGF had extensive vascularization and vessels throughout the plug.
In vivo angiogenesis was assayed in mice as growth of blood vessels from subcutaneous tissue into a Matrigel plug containing the test sample. Matrigel rapidly forms a solid gel at body temperature, trapping the factors to allow slow release and prolonged exposure to surrounding tissues. Matrigel (8.13 mg/ml, 0.5 ml) in liquid form at 4° C. was mixed with Endothelial Cell Growth Supplement (ECGS), test proteins plus ECGS or Matrigel plus vehicle alone (PBS containing 0.25% BSA). Matrigel (0.5 ml) was injected into the abdominal subcutaneous tissue of female nu/nu mice (6 wks old) along the peritoneal mid line. There were 3 mice in each group. The animals were cared for in accordance with institutional and NIH guidelines. At day 6, mice were sacrificed and plugs were recovered and processed for histology. Typically the overlying skin was removed, and gels were cut out by retaining the peritoneal lining for support, fixed in 10% buffered formalin in PBS and embedded in paraffin. Sections of 3 μm were cut and stained with H&E or Masson's trichrome stain and examined under light microscope

[3] = tested on: HUVEC; experiment: Endothelial cell tube (cord) formation on Matrigel; type: cell-based, human
Protocol: as §1
Matrigel (60 μl of 10 mg/ml; Collaborative Lab #35423) is placed in each well of an ice-cold 96-well plate. The plate is allowed to sit at room temperature for 15 minutes then incubated at 37° C. for 30 minutes to permit the matrigel to polymerize. In the mean time, HUVECs are prepared in EGM-2 (Clonetic #CC3162) at a concentration of 2×10^5 cells/ml. The test compound is prepared at 2× the desired concentration (5 concentration levels) in the same medium. Cells (500 μl) and 2× drug (500 μl) is mixed and 200 μl of this suspension are placed in duplicate on the polymerized matrigel. After 24 h incubation, triplicate pictures are taken for each concentration using a Bioquant Image Analysis system. Drug effect (IC50) is assessed compared to untreated controls by measuring the length of cords formed and number of junctions.
Matrigel (60 μl of 10 mg/ml; Collaborative Lab, Cat. No. 35423) was placed in each well of an ice-cold 96-well plate. The plate was allowed to sit at room temperature for 15 minutes then incubated at 37° C. for 30 minutes to permit Matrigel to polymerize. In the mean time, human umbilical vein endothelial cells were prepared in EGM-2 (Clonetic, Cat. No. CC3162) at a concentration of 2×10^5 cells/ml. The test protein was prepared at 2× the desired concentration (5 concentration levels) in the same medium. Cells (500 μl) and 2× protein (500 μl) were mixed and 200 μl of this suspension were placed in duplicate on the polymerized Matrigel. After 24 h incubation, triplicate pictures were taken for each concentration using a Bioquant Image Analysis system. Protein addition effect (IC50) was assessed compared to untreated controls by measuring the length of cords formed and number of junctions.

[4] = tested on: HUVECS; experiment: MTS cytotoxicity assay; type: cell-based, human
[5] = tested on: KS-SLK cells; experiment: KS-SLK cord formation on Matrigel; type: cell-based, human
Protocol: as §1

[6] = tested on: SCC15 tumors; experiment: SCC15 tumor growth and histology in nude mice, soluble EphB4; type: in vivo, mouse; conditions: treated vs control tumors, CD31
[7] = tested on: EphB4 receptor; experiment: EphB4 receptor phosphorylation in HUVECs (Western blot); type: cell-based, human; conditions: serum-starved HUVECs, in the presence of EphrinB2Fc
Description: We examined EphB4 receptor phosphorylation in HUVECs by performing Western blot analyses with lysates from soluble EphB4-treated cells and antibodies against phosphor-tyrosine. […] Ephrin B2Fc without the soluble EphB4 protein induced phosphorylation of EphB4 receptor (FIG. 22).

| Molecule | cell cycle distribution [1] | vascularization of Matrigel plugs / in vivo angiogenesis [2] | vascularization of Matrigel plugs / in vivo angiogenesis ([2]; listed as EphB4-ECD) | infiltration / invasion of cells into Matrigel plugs [2] | infiltration / invasion of cells into Matrigel plugs ([2]; listed as EphB4 ECD) | endothelial cell tube / tubule / cord formation [3] | endothelial cell tube / tubule / cord formation ([3]; listed as EphB4-ECD) | cytotoxic effect [4] | cord formation [5] | Microvessel density in the outer viable rim of tumor cells [6] | level of phosphorylated EphB4 [7] | endothelial cell tube / tubule / cord formation ([3]; listed as B4v3) |
| --- | --- | --- | --- | --- | --- | --- | --- | --- | --- | --- | --- | --- |
| B1 | accumulation in subG0/G1 and S/G2 phases | markedly reduced | inhibits | significantly inhibited | almost completely inhibited | significantly inhibited | inhibits | no detectable cytotoxic effect | inhibits | similar | rapid and transient decrease | – |
| B2 | – | – | – | inhibits invasion | – | inhibition | – | – | – | – | – | strong inhibition |
